The chains are these.
T1: human Y2 receptor (human, UniProt P49146 1-381)
T1 sequence (looked up): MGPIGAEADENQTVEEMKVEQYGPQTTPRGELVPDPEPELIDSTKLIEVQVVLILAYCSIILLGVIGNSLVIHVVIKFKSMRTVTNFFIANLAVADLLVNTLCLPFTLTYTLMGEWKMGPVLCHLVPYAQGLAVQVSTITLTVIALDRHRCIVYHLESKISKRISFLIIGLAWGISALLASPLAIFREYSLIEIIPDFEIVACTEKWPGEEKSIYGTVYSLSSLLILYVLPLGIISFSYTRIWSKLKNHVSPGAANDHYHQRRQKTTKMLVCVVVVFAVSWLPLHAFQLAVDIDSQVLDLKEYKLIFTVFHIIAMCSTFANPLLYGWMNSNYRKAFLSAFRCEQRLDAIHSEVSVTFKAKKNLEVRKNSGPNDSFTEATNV

B1: Isobutanoyl-[Abu26, Cha27,28,36, Gly(cPr)31]-PYY(25-36) (peptide)
peptide: Isobutyryl-R[Abu][Cha][Cha]NL[Gly(cPr)]TRQR[Cha]-NH2
SMILES: CC[C@H](NC(=O)[C@H](CCCNC(=N)N)NC(=O)C(C)C)C(=O)N[C@@H](CC1CCCCC1)C(=O)N[C@@H](CC1CCCCC1)C(=O)N[C@@H](CC(N)=O)C(=O)N[C@@H](CC(C)C)C(=O)N[C@H](C(=O)N[C@H](C(=O)N[C@@H](CCCNC(=N)N)C(=O)N[C@@H](CCC(N)=O)C(=O)N[C@@H](CCCNC(=N)N)C(=O)N[C@@H](CC1CCCCC1)C(N)=O)[C@@H](C)O)C1CC1
B2: Isobutanoyl-[Abu26,27, Cha28,36, Aib31]-PYY(25-36) (peptide)
peptide: Isobutyryl-R[Abu][Abu][Cha]NL[Aib]TRQR[Cha]-NH2
SMILES: CC[C@H](NC(=O)[C@H](CCCNC(=N)N)NC(=O)C(C)C)C(=O)N[C@@H](CC)C(=O)N[C@@H](CC1CCCCC1)C(=O)N[C@@H](CC(N)=O)C(=O)N[C@@H](CC(C)C)C(=O)NC(C)(C)C(=O)N[C@H](C(=O)N[C@@H](CCCNC(=N)N)C(=O)N[C@@H](CCC(N)=O)C(=O)N[C@@H](CCCNC(=N)N)C(=O)N[C@@H](CC1CCCCC1)C(N)=O)[C@@H](C)O
B3: Isobutanoyl-[Abu26, Cha27,28,36, Abu30, Aib31]-PYY(25-36) (peptide)
peptide: Isobutyryl-R[Abu][Cha][Cha]N[Abu][Aib]TRQR[Cha]-NH2
SMILES: CC[C@H](NC(=O)[C@H](CCCNC(=N)N)NC(=O)C(C)C)C(=O)N[C@@H](CC1CCCCC1)C(=O)N[C@@H](CC1CCCCC1)C(=O)N[C@@H](CC(N)=O)C(=O)N[C@@H](CC)C(=O)NC(C)(C)C(=O)N[C@H](C(=O)N[C@@H](CCCNC(=N)N)C(=O)N[C@@H](CCC(N)=O)C(=O)N[C@@H](CCCNC(=N)N)C(=O)N[C@@H](CC1CCCCC1)C(N)=O)[C@@H](C)O
B4: Isobutanoyl-[Abu26, Cha27,36, Gly(cPr)28, Aib31]-PYY(25-36) (peptide)
peptide: Isobutyryl-R[Abu][Cha][Gly(cPr)]NL[Aib]TRQR[Cha]-NH2
SMILES: CC[C@H](NC(=O)[C@H](CCCNC(=N)N)NC(=O)C(C)C)C(=O)N[C@@H](CC1CCCCC1)C(=O)N[C@H](C(=O)N[C@@H](CC(N)=O)C(=O)N[C@@H](CC(C)C)C(=O)NC(C)(C)C(=O)N[C@H](C(=O)N[C@@H](CCCNC(=N)N)C(=O)N[C@@H](CCC(N)=O)C(=O)N[C@@H](CCCNC(=N)N)C(=O)N[C@@H](CC1CCCCC1)C(N)=O)[C@@H](C)O)C1CC1
B5: Isobutanoyl-[Abu26, Cha27,28,36, Gln30, Aib31]-PYY(25-36) (peptide)
peptide: Isobutyryl-R[Abu][Cha][Cha]NQ[Aib]TRQR[Cha]-NH2
SMILES: CC[C@H](NC(=O)[C@H](CCCNC(=N)N)NC(=O)C(C)C)C(=O)N[C@@H](CC1CCCCC1)C(=O)N[C@@H](CC1CCCCC1)C(=O)N[C@@H](CC(N)=O)C(=O)N[C@@H](CCC(N)=O)C(=O)NC(C)(C)C(=O)N[C@H](C(=O)N[C@@H](CCCNC(=N)N)C(=O)N[C@@H](CCC(N)=O)C(=O)N[C@@H](CCCNC(=N)N)C(=O)N[C@@H](CC1CCCCC1)C(N)=O)[C@@H](C)O
B6: Benzoyl-[Ser26, Cha27,28,36, Aib31]-PYY(25-36) (peptide)
peptide: Bz-RS[Cha][Cha]NL[Aib]TRQR[Cha]-NH2
SMILES: CC(C)C[C@H](NC(=O)[C@H](CC(N)=O)NC(=O)[C@H](CC1CCCCC1)NC(=O)[C@H](CC1CCCCC1)NC(=O)[C@H](CO)NC(=O)[C@H](CCCNC(=N)N)NC(=O)c1ccccc1)C(=O)NC(C)(C)C(=O)N[C@H](C(=O)N[C@@H](CCCNC(=N)N)C(=O)N[C@@H](CCC(N)=O)C(=O)N[C@@H](CCCNC(=N)N)C(=O)N[C@@H](CC1CCCCC1)C(N)=O)[C@@H](C)O
B7: Isobutanoyl-[Abu26, Cha27,28,36, Ser30, Aib31]-PYY(25-36) (peptide)
peptide: Isobutyryl-R[Abu][Cha][Cha]NS[Aib]TRQR[Cha]-NH2
SMILES: CC[C@H](NC(=O)[C@H](CCCNC(=N)N)NC(=O)C(C)C)C(=O)N[C@@H](CC1CCCCC1)C(=O)N[C@@H](CC1CCCCC1)C(=O)N[C@@H](CC(N)=O)C(=O)N[C@@H](CO)C(=O)NC(C)(C)C(=O)N[C@H](C(=O)N[C@@H](CCCNC(=N)N)C(=O)N[C@@H](CCC(N)=O)C(=O)N[C@@H](CCCNC(=N)N)C(=O)N[C@@H](CC1CCCCC1)C(N)=O)[C@@H](C)O
B8: Isobutanoyl-[Abu26, Cha27,28,36, His30, Aib31]-PYY(25-36) (peptide)
peptide: Isobutyryl-R[Abu][Cha][Cha]NH[Aib]TRQR[Cha]-NH2
SMILES: CC[C@H](NC(=O)[C@H](CCCNC(=N)N)NC(=O)C(C)C)C(=O)N[C@@H](CC1CCCCC1)C(=O)N[C@@H](CC1CCCCC1)C(=O)N[C@@H](CC(N)=O)C(=O)N[C@@H](Cc1c[nH]cn1)C(=O)NC(C)(C)C(=O)N[C@H](C(=O)N[C@@H](CCCNC(=N)N)C(=O)N[C@@H](CCC(N)=O)C(=O)N[C@@H](CCCNC(=N)N)C(=O)N[C@@H](CC1CCCCC1)C(N)=O)[C@@H](C)O
B9: Isobutanoyl-[Abu26, Gly27, Cha28,36, Aib31]-PYY(25-36) (peptide)
peptide: Isobutyryl-R[Abu]G[Cha]NL[Aib]TRQR[Cha]-NH2
SMILES: CC[C@H](NC(=O)[C@H](CCCNC(=N)N)NC(=O)C(C)C)C(=O)NCC(=O)N[C@@H](CC1CCCCC1)C(=O)N[C@@H](CC(N)=O)C(=O)N[C@@H](CC(C)C)C(=O)NC(C)(C)C(=O)N[C@H](C(=O)N[C@@H](CCCNC(=N)N)C(=O)N[C@@H](CCC(N)=O)C(=O)N[C@@H](CCCNC(=N)N)C(=O)N[C@@H](CC1CCCCC1)C(N)=O)[C@@H](C)O
B10: Tetrahydro-2H-pyran-4-yl-carbamoyl-[D-Pro24, Cha27,36, Leu(Me)28, Lys30, Aib31]-PYY(23-36) (peptide)
peptide: X10-S[dP]RH[Cha][tBuAla]NK[Aib]TRQR[Cha]-NH2
SMILES: C[C@@H](O)[C@H](NC(=O)C(C)(C)NC(=O)[C@H](CCCCN)NC(=O)[C@H](CC(N)=O)NC(=O)[C@H](CC(C)(C)C)NC(=O)[C@H](CC1CCCCC1)NC(=O)[C@H](Cc1c[nH]cn1)NC(=O)[C@H](CCCNC(=N)N)NC(=O)[C@H]1CCCN1C(=O)[C@H](CO)NC(=O)NC1CCOCC1)C(=O)N[C@@H](CCCNC(=N)N)C(=O)N[C@@H](CCC(N)=O)C(=O)N[C@@H](CCCNC(=N)N)C(=O)N[C@@H](CC1CCCCC1)C(N)=O
notes: also called compound No. 229
B11: Ac-[D-Pro24, Gln26, Cha27,36, Aib28,31, Lys30]-PYY(23-36) (peptide)
peptide: Ac-S[dP]RQ[Cha][Aib]NK[Aib]TRQR[Cha]-NH2
SMILES: CC(=O)N[C@@H](CO)C(=O)N1CCC[C@@H]1C(=O)N[C@@H](CCCNC(=N)N)C(=O)N[C@@H](CCC(N)=O)C(=O)N[C@@H](CC1CCCCC1)C(=O)NC(C)(C)C(=O)N[C@@H](CC(N)=O)C(=O)N[C@@H](CCCCN)C(=O)NC(C)(C)C(=O)N[C@H](C(=O)N[C@@H](CCCNC(=N)N)C(=O)N[C@@H](CCC(N)=O)C(=O)N[C@@H](CCCNC(=N)N)C(=O)N[C@@H](CC1CCCCC1)C(N)=O)[C@@H](C)O
notes: also called compound No. 221
B12: Ac-[D-Pro24, Cha27,28, Aib31, DL-Phe(2,6-Me2)36]-PYY(23-36) (peptide)
peptide: Ac-S[dP]RH[Cha][Cha]NL[Aib]TRQRX-NH2
modifications: not fully specified (residue 14); printed as Ac-Ser-D-Pro-Arg-His-Cha-Cha-Asn-Leu-Aib-Thr-Arg-Gln-Arg-DL-Phe(2,6-Me2)-NH2; also: residue 36 is DL racemic
notes: residue 36 is a DL racemate; also called compound No. 201
B13: Ac-[D-Pro24, Phe26, Cha27,36, Aib28,31, Lys30]-PYY(23-36) (peptide)
peptide: Ac-S[dP]RF[Cha][Aib]NK[Aib]TRQR[Cha]-NH2
SMILES: CC(=O)N[C@@H](CO)C(=O)N1CCC[C@@H]1C(=O)N[C@@H](CCCNC(=N)N)C(=O)N[C@@H](Cc1ccccc1)C(=O)N[C@@H](CC1CCCCC1)C(=O)NC(C)(C)C(=O)N[C@@H](CC(N)=O)C(=O)N[C@@H](CCCCN)C(=O)NC(C)(C)C(=O)N[C@H](C(=O)N[C@@H](CCCNC(=N)N)C(=O)N[C@@H](CCC(N)=O)C(=O)N[C@@H](CCCNC(=N)N)C(=O)N[C@@H](CC1CCCCC1)C(N)=O)[C@@H](C)O
notes: also called compound No. 345

Non-standard residues stand in square brackets, D forms with d. *: point of attachment. X10 = Tetrahydro‑2H‑pyran‑4‑yl‑carbamoyl, O=C(NC1CCOCC1)*; tBuAla = CC(C)(C)C[C@H](N)C(=O)O; Cha = N[C@@H](CC1CCCCC1)C(=O)O; Gly(cPr) = N[C@H](C(=O)O)C1CC1; Isobutyryl = CC(C)C(=O)*; Abu = CC[C@H](N)C(=O)O; Aib = CC(C)(N)C(=O)O; Bz = O=C(c1ccccc1)*

One experiment deals with human Y2 receptor (human) (UniProt P49146). The experiment can be described thus: cell-based or functional assay.
As for B1, the GBA EC50 Ratio (vs PYY(3-36)), [35S]GTPγS turned out to be 16.
With B2, the GBA EC50 Ratio (vs PYY(3-36)), [35S]GTPγS stood at 37.
Still for that read-out and setting: the value for B3 was 21; that for B4 was 41.
As for B5, the GBA EC50 Ratio (vs PYY(3-36)), [35S]GTPγS was determined as 22.
The same measure, in the same setting: the value for B6 was 6; that for B7 was 28; that for B8 was 20.
On the same count and under the same terms, the figure for B9 is 49.

For another experiment, the target named is T1, human Y2 receptor. The experiment can be described thus: cell-based or functional assay.
In the case of B10, the “GBA EC50 Ratio ([35S]GTPγS binding)” value was 0.5 EC50 compound/EC50 PYY(3-36).
Same read-out and setting: the value for B11 was 1.4 EC50 compound/EC50 PYY(3-36).
Still for that read-out and setting: the value for B12 was 2 EC50 compound/EC50 PYY(3-36); that for B13 was 1.4 EC50 compound/EC50 PYY(3-36).

Another experiment concerns the target human Y2 receptor (human) (UniProt P49146). The experiment can be described thus: RBA: [125I]-PYY displacement, hY2R/CHO membranes.
B1: the IC50 Ratio (vs PYY(3-36)) turned out to be 25.
In the case of B2, the IC50 Ratio (vs PYY(3-36)) amounted to 31.
On to B3, for which the IC50 Ratio (vs PYY(3-36)) is 20.
As to B4, the IC50 Ratio (vs PYY(3-36)) turned out to be 52.
The same measure, in the same setting: the figure for B5 is 19.
On the same count and under the same terms, the value for B6 was 13.
The same measure, in the same setting: the value for B7 was 26; that for B8 was 22; that for B9 was 70.

For another experiment, the target named is T1, human Y2 receptor. Nature of the experiment: RBA: displacement of [125I]-PYY from hY2R/CHO membranes. As to the method:
After incubation at room temperature for 60 minutes, the mixture was filtered through the cell harvester FilterMate (PerkinElmer) using UniFilter-96 GF/C treated with polyethylenimine (PEI) solution (20 mM Tris, 0.3% PEI, pH 7.4), and the filter was washed 3 times with a filtering buffer (50 mM Tris, 5 mM MgCl₂, 150 mM NaCl, 0.03% NaN₃, 0.05% CHAPS, pH 7.4). Thereafter, UniFilter-96 GF/C was dried in a mechanical drier for 1 hour, 15 μl of the liquid scintillator MicroScint O (PerkinElmer) was added to each well, and a measurement was taken using TopCount (PerkinElmer). The data obtained were analyzed using Prism to calculate the IC₅₀ value.
(In general: Loss of bound radioactivity is the signal in a displacement assay; it reports binding, not function.)
For B10, the “IC50 Ratio” value was 0.45 IC50 compound/IC50 PYY(3-36).
Still for that read-out and setting: the figure for B11 is 3.1 IC50 compound/IC50 PYY(3-36); for B12 it is 1.6 IC50 compound/IC50 PYY(3-36).
On the same count and under the same terms, the value for B13 was 1.1 IC50 compound/IC50 PYY(3-36).

Source of the values: patent US20120172293A1 (Takeda / Millennium, published 2012).
